Assay: soluble on expression in E. coli; label from the status in PepcDB or PDB records

Question: Which “soluble on expression in E. coli” value does the source give for “MSVTYDDSVGVEVSSDSFWEVGNYKRTVKRIDDGHRLCSDLMNCLHERARIEKAYAQQLTEWARRWRQLVEKGPQYGTVEKAWMAFMSEAERVSELHLEVKASLMNDDFEKIKNWQKEAFHKQMMGGFKETKEAEDGFRKAQKPWAKKLKEVEAAKKAHHAACKEEKLAISREANSKADPSLNPEQLKKLQDKIEKCKQDVLKTKEKYEKSLKELDQGTPQYMENMEQVFEQCQQFEEKRLRFFREVLLEVQKHLDLSNVAGYKAIYHDLEQSIRAADAVEDLRWFRANHGPGMAMNWPQFEEWSADLNRTLSRREKKKATDGVTLTGINQTGDQSLPSKPSSTLNVPSNPAQSAQSQSSYNPFEDEDDTGSTVSEKDDTKAKNVSSYEKTQSYPTDWSDDESNNPFSSTDANGDSNPFDDDATSGTEVRVRALYDYEGQEHDELSFKAGDELTKMEDEDEQGWCKGRLDNGQVGLYPANYVEAIQ” here?
Answer: The value was “soluble”.

Question: With “MSLPKEEILTGPAVIKIVSTYMGPEHVELVQKALTYAEKAHEGQVRQSGEPYIIHPIQVAGILAELHMDPHTVATGFLHDVVEDTDVTLDDLKEEFGEDIAMLVDGVTKLGKIKYKSHEEQLAENHRKMLLAMAQDLRVIMVKLADRLHNMRTLKHLREDKQRRIAQETLEIYAPLAHRLGISRIKWELEDTALRYINPNQYYRIVNLMQSKRDEREAYVAEAVEDIRLATEDLEIYAEIYGRPKHIYSIYRKMKDQKKQFNEIYDLLAIRVIVDSIKDCYAVLGAIHTRWTPMPGRFKDYIAMPKANMYQSIHTTVIGPKGNPVEVQIRTHEMHQIAEFGVAAHWAYKEGKAEKIETDELTKQVDWFHEIIELQDESYDASEFMQGVKEDIFSDKVYVFTPSGDVTELPKGSGPLDFAYSIHTEIGNKTTGAKVNGKMVQLDYVLKNGDIIEVLTSPNSFGPSRDWLKMVKTSKAKNKIKRFFKEQDREDNIIKGHDAVIKYMTEIGFTPKEFLTKNKMAEVLDKFKFQTEDDLFAAVGYGEVSAQVVCNRLTEKERREQELERQRQEAEELLNQPAKKESEKMKVRHEGGIVIQGVDNLLIRLSRCCNPVPGDEIVGYITKGRGVSIHRADCPNVQHQEELAQRLIEVEWEDTEHSRKEYAADLEIYGYDRSGLLSDVLQVISSMTKNLVGVEARPSKDKMAQIHVTVKIQNLSHLKTIVDKIKSVPDVYSVRRTNGEGHHHHHH” as the sequence, how does the “soluble on expression in E. coli” value read?
Answer: Its value is “soluble”.

Question: For “AELRSREYAEILKQKQELSLVEAGEFNSLGKRNGRVYFVETFDTESGIMKNLFLREQDKNGGDNIIFAKEGNFSLNDNKRTLELRHGYRYSGTPGRADYNQVSFQKLNLIISTTPKLIDPVSHRRTIPTAQLIGSSNPQHQAELMWR”, which “soluble on expression in E. coli” value is on record?
Answer: The value was “soluble”.

Question: Which “soluble on expression in E. coli” value does the source give for “MQIQTPDWVKHAVFYQIFPDRFARSKQPRKRLLQEARWEDWDSMPTLQGYKGGDLWGIMEDLDYIQNLGINAIYFTPIFQSASNHRYHTHDYYQVDPMLGGNEAFKELLDAAHQRNIKVVLDGVFNHSSRGFFFFHDVLENGPHSPWVNWFKIEGWPLSPYNGEFPANYVGWAGNRALPEFNHDNPEVREYIMEIAEYWLKFGIDGWRLDVPFEIKTPGFWQEFRDRTKAINPEAYIVGEVWGDSRQWLDGTQFDGVMNYLFAGPTIAFAAGDRVVLEQVQSRDYQPYPPLFAAEYATKIQEVLQLYPWEIQLTQLNLLASHDTARLMTIAGGDIASVELSTLLLLTFPGAPSIYYGDEVGLPGGIDPDSRRGFPLEANWNQEIFNTHRQLITIRQTYPALRTGDYQVLYAQGQLYLFARTLGTEELIIAINAGTSSATANVDVASLHTQPNKLLYGTAEAEWNGEEGTQQLSLTLPARSGCILGTGD” here?
Answer: The value was “soluble”.

Question: For “MPAHSLSLYQYYRPPLDWQAQLAFYRLRAVAGMEWFSNTDNDCLEKIAQDKQALEYGRTLQIDDIRAVVHIIHEAHLHRFKLTLTFTPDSPIAGLQKLITQVRRILDLDADMQQIEHNLQRLTDLKLIPKSGLRIPGAGSLEHHHHHH”, which “soluble on expression in E. coli” value is on record?
Answer: Its value is “not soluble”.

Question: Which “soluble on expression in E. coli” value does the source give for “MGHHHHHHSHSKKPYIVTIACTKGGSAKSTNAANIGAFCADHGLRTLLIDTDTQPTLSSYYSLAKTAPGGIYEFLLQRDVEPSHIVSQTSIKNLDLIQSNDPSNNVSHMLRNAPDGSIRFSHLIKSINNYDVIVIDTRGTRDITVDMSVLAADILFCPILPQILSAKEFIRGTIGMYQDLQTFESFGFKLPPLKAIANGVDNTNDVKFVMQKLHTLFANTFDESKTLLDFSIPYHVAYREAVTYALPVYRHSAVEYPVMQQLCC” here?
Answer: The value was “not soluble”.

Question: For “MAPTLAEAEKFLRNSKIDKIVLEKLAEILVTTMDDWNLIADQKVAESVWVVLTEAGRSGNLSENLGDGDVAKQLKSVFEKIRLRLQAQLGTIQWKNDELVDYDVTISKNNKSSLHADHTFQRVVLTLKVIPAGKMDVEALVVDFDEAQLNDFIWKLLEAKAMMDRIQKRVESR”, which “soluble on expression in E. coli” value is on record?
Answer: The value was “not soluble”.

Question: Which “soluble on expression in E. coli” value does the source give for “MSLANQVLAVNDDLPIRTHKPVHSGKVRSVYWLTEEDSARLIKEKGYDVAPDAPLAIMVISDRISAFDCIWHGEGGLKGVPGKGAALNAISNHWFKLFKDNGLADSHILDIPHPFVWIVQKAKPVKIEAICRKYITGSMWRAYANGEREFCGIQLPEGLEKDKALPNLLMTPSTKGILKGIPGVPEADDVNITRQNIVDNYEAFNFSSAEDIAQYEKLLKEGFNVISQALEGIDQIFVDTKFEFGYVHDAAGNEKLIYMDEVGTPDSSRIWDAKEYQAGNIVENSKEGFRQFLLNHFPDPDILLNKERMPEREALARDNDLPVESLMDISRTYIGIAEKITGKPITLSENPKAEIIEILSKEYGLIDEGHHHHHH” here?
Answer: Its value is “soluble”.

Question: With “MSEFWKARNWQRKFLVTGRRCFHPMELFSEIKNRYFQLMFRIINECAEGKSKSEVLKIIDEGEFGQKVIGKNQKSFSDLVLNRCAPDENLNLLIEKDGMYYPSIMNSDESGNMAGNAAKKITRPPLPVRFSQIEKAWLKALLDKEEARMILSRETFDKLQKELAGIDTPIKDEYFEFTNKIKLPEIANQKAYEENFRLLLNAIIQEKPIRYNNIDKKGNMYNDRLALPVSIEYSMRDGRFRVSMYLLDENRPVMANVFTLSDIRIVDEDVGFDRETAKRLLLEQKYSEEPIILEVTDEKAAMERCFMCFSGMERTARSLGNNKYEIKLNYYLFEEENLIRNIISLGPYVKVISPQRIVDEVVARVKKAISLYNI” as the sequence, how does the “soluble on expression in E. coli” value read?
Answer: The value was “not soluble”.

Question: With “MGSDKIHHHHHHMLNSMRINAFVKFQFPDDLLLNSNLVYGMVNGSTYEREIRDILGGREQAVKKYASKIPEKSDAIMSLIESPFYVTRSAGSFGADVIAIRHDFSMVIEVKSSVRPYLMFSEGSGKKQEQANRINEMCTKAGIFLTYAYRIKNVQGDPWKLFVVESKPIGRFSMVYELIPKIAKTREGNYIMKWEDGLPLSSFIEIINKKII” as the sequence, how does the “soluble on expression in E. coli” value read?
Answer: Its value is “not soluble”.

Question: For “MGSDKIHHHHHHMEKLNFGIPEWAFEFHGHKCPYMPMGYRAGSYALKIAGLEKEKDHRTYLLSEMSPEDMNGCFNDGAQAATGCTYGKGLFSLLGYGKLALILYRPGRKAIRVHVRNSFMDELSTRASDFFRYRKQGYEPSEIPAGAIDPVLEWISSLEDEEIFEYREIDGFTFEPVKKNGAKVRCDVCGEYTYEADAKLLNGKPVCKPDYYGKK”, which “soluble on expression in E. coli” value is on record?
Answer: The value was “not soluble”.

Question: For “MAVTKELLQMDLYALLGIEEKAADKEVKKAYRQKALSCHPDKNPDNPRAAELFHQLSQALEVLTDAAARAAYDKVRKAKKQAAERTQKLDEKRKKVKLDLEARERQAQAQESEEEEESRSTRTLEQEIERLREEGSRQLEEQQRLIREQIRQERDQRLRGKAENTEGQGTPKLKLKWKCKKEDESKGGYSKDVLLRLLQKYGEVLNLVLSSKKPGTAVVEFATVKAAELAVQNEVGLVDNPLKISWLEGQPQDAVGRSHSGLSKGSVLSERDYESLVMMRMRQAAERQQLIARMQQEDQEGPPT”, which “soluble on expression in E. coli” value is on record?
Answer: Its value is “soluble”.

Question: Which “soluble on expression in E. coli” value does the source give for “MSKLYLMSLGCNKNLVDSEIMLGHLSAYELCDEPSKADVLIVNTCGFIDSAKKESINAILDLHEQRKKDSLLVVTGCLMQRYREELMKELPEVDLFTGVGDYERIDEMILKKTNLFSNSTYLQSENSKRIITGSNSHAFIKIAEGCNQKCSFCAIPSFKGKLKSREISSIIAELKDLVARGYKDFSFIAQDTSSYLFDKGEKDGLIRLIDEVEKIKGIRAARILYLYPTSASEALIKRIIASEIFINYFDMPLQHISDNMLKIMKRGANSTRLKEMLNLMKSAPNSFLRTGFIVGHPGESEADFEELCEFVKDFGFDRISVFAYSKEEDTAAFDMEQVPFKVINKRLKIIEKIVDEVIEKSFEKEVGQKRLVVCTGKSSEGEFFIAAKDLRWDREIDGEILINESECGNLEMGQIYECEILQNLDKKLLAKALRKVDANLEHHHHHH” here?
Answer: Its value is “soluble”.

Question: Which “soluble on expression in E. coli” value does the source give for “MRVQPVTNCEKAVILEALKIGKRFDFRSLEEFRDVKLVVGAEVGTAICTIGNTKVMAAVSAEIAEPSSMRPHKGVINIDVDLSPMANYANEHDRLGSKGMELIRLLELIIRDSRCIDVEALCIRAGKEIWKIRVDVRILDEDGSLLDCACLAAITALQHFRRPNVTLEPHHTLIYSEYEKAPVPLNIYHMPICTTIGLLDKGQIVVIDPTDKETACLDGSIVVACNKRREVCALHQSTNLILSTKQIERCVKLAMARAEALTAVVSDVIKQDQIERSAFKRPDGFAITTPSLILTAGTTASRQIRAPVIKTEPESFTQRSLYQPSVILNENPLSVGSVKQEDVDEETLLAEQLTTIQNSVGQVEVTEKQTVAVSSRKREVEEVNDLLDGLDDDDEEEEVQTMTLGSETVLNDVPMEEAPDAEDSLVNAKKKKKK” here?
Answer: Its value is “not soluble”.

Question: With “MNRPHSATGDRPLALVDEHAHAWSPKTARARFRKGLTGPTAGVAAGHTQANLISVPADWAYDMLLFCTRNPQPCPVLDVTDAGSWTTVLADGADLRTDLPRYRVWRDGELVDEPSDVREHWRDDLVTFLIGCSFTFEWALAAAGVPIRHVEQGRNVPMYVTSRACRPAGRLRGPMVVSMRPVPPAHLSAAIHESSLLPAVHGSPVHCGDPSALGIDDLDRPDFGEAVYREPDDIPVFWACGVTPQAAVMASRPPFALTHAPGQMFLTDARDEQYRVALEHHHHHH” as the sequence, how does the “soluble on expression in E. coli” value read?
Answer: The value was “soluble”.

Question: With “MYDLLVIGAGPGGYVAAIRAAQLGMKVGVVEKEKALGGTCLRVGCIPSKALLETTERIYEAKKGLLGAKVKGVELDLPALMAHKDKVVQANTQGVEFLFKKNGIARHQGTARFLSERKVLVEETGEELEARYILIATGSAPLIPPWAQVDYERVVTSTEALSFPEVPKRLIVVGGGVIGLELGVVWHRLGAEVIVLEYMDRILPTMDLEVSRAAERVFKKQGLTIRTGVRVTAVVPEAKGARVELEGARSWKTDRVLVAVGRRPYTEGLSLENAGLSTDERGRIPVDEHLRTRVPHIYAIGDVVRGPMLAHKASEEGIAAVEHMVRGFGHVDYQAIPSVVYTHPEIAAVGYTEEELKAQGIPYKVGKFPYSASGRARAMGETEGFIKVLAHAKTDRILGVHGIGARVGDVLAEAALALFFKASAEDLGRAPHAHPSLSEILKEAALAAWERPIHL” as the sequence, how does the “soluble on expression in E. coli” value read?
Answer: Its value is “soluble”.

Question: For “MEVPENLKNPQNARREGSNMKCLADYSVEKEVGEGSFSTVYLARRKEPKNDENPEVALKICLKRLILKNKMVPYIHREKEALALISREENAHPGIVTLYATFQDSESLYFVLEYAKYGDLCTLMQKQPDSKFNVADSRYYAANLLSALEHIHKLGIIHRDVKADNLLVKSDGRIMLTDFGSSKFLSDYQKIQENPVEEEQPTGRRSSFVGTAFFVTPELLTGSEMSPSSDLWAFSVTLYLFLTGIYPFNDMSEYLVFRRIQDILYTFSEDFPDENAKNLIERLLVKEQKSRLTSQEIKEHKFFESIDFEHLEQLEPPRIY”, which “soluble on expression in E. coli” value is on record?
Answer: Its value is “not soluble”.

Question: Which “soluble on expression in E. coli” value does the source give for “MSKSENLYSAARELIPGGVNSPVRAFTGVGGTPLFIEKADGAYLYDVDGKAYIDYVGSWGPMVLGHNHPAIRNAVIEAAERGLSFGAPTEMEVKMAQLVTELVPTMDMVRMVNSGTEATMSAIRLARGFTGRDKIIKFEGCYHGHADCLLVKAGSGALTLGQPNSPGVPADFAKYTLTCTYNDLASVRAAFEQYPQEIACIIVEPVAGNMNCVPPLPEFLPGLRALCDEFGALLIIDEVMTGFRVALAGAQDYYGVVPDLTCLGKIIGGGMPVGAFGGRRDVMDALAPTGPVYQAGTLSGNPIAMAAGFACLNEVAQPGVHETLDELTTRLAEGLLEAAEEAGIPLVVNHVGGMFGIFFTDAESVTCYQDVMACDVERFKRFFHMMLDEGVYLAPSAFEAGFMSVAHSMEDINNTIDAARRVFAKL” here?
Answer: Its value is “soluble”.

From the DeepSol protein solubility set
